Assay results published in patent publication US10858688B2, “Observation method using binding and dissociation probe” (KYOTO UNIVERSITY, priority 2015, dated 2020).

Assays:
focal adhesion [1] = experiment: IRIS image test (reconstruction image); type: cell-based, Xenopus laevis; set-up: key: “IRIS image” is positive (P) when above criterion (3) is met; conditions: reconstruction from 10000 frames with DAOSTORM
Experimental: (§1) […] It is possible to reconstruct an image of a target substance by integrating the central positions of the respective speckles. The IRIS image test of the above (3) whose result is described in table 1 was performed in the following procedures. By using all the speckle images of 10000 frames picked up in the localization test, the central point of a probe that has bound to a target in each frame of the speckle images was determined with nanometer accuracy by using DAOSTORM. By adding a large number of pieces of central point information in the fluorescence images of 10000 frames, a reconstruction image (observation image) was generated. Whether or not a distribution of a target molecule was able to be observed in that reconstruction image was determined, and when a distribution of a target molecule was observed, the result was treated as P (positive).

focal adhesion [2] = experiment: Washability test of probe candidates; type: cell-based, Xenopus laevis; set-up: key: “washability” is positive (P) when above criterion (2) is met; conditions: speckles equal to or less than about 10% after switching imaging solution 10 to 20 times
Experimental: (§2) (2) It is possible to wash and remove a probe after SiMS imaging (imaging step);
(§3) The […] of the above (2), whose result is shown in table 1, was performed in the following procedures. […] This switching of imaging solution was conducted slowly so that the observation position would not shift. Next, an imaging solution not containing a probe and not containing the active oxygen-scavenging mix was switched 10 to 20 times. After the switching, for confirmation, for an XCT cell sample in the observation chamber, speckle images of 10 frames were picked up under a similar condition to that of the localization test described in the previous paragraph, and when the number of speckles confirmed in the speckle images (i.e., the number of probes that had bound) became sufficiently smaller (equal to or less than about 10%) than the number of the speckles in the speckle images before the washing operation, washing was determined to be possible and the result was treated as P (positive).

focal adhesion [3] = experiment: Localization test of probe candidates (integrated SiMS images); type: cell-based, Xenopus laevis; set-up: key: “localization” is positive (P) when above criterion (1) is met; conditions: fixed, permeabilized XTC cell; lysate supernatant of EGFP fused probe; TIRF, 10000 frames
Experimental: (§4) HEK (Human embryonic kidney)-293F cells were transfected with a plasmid encoding a probe candidate protein tagged with FLAG-EGFP or 3×FLAG-EGFP. […] Centrifugal separation was performed on the lysate and the supernatant liquid was collected. In order to perform screening for a probe for IRIS, the binding capacity of a probe candidate in the supernatant liquid with respect to the structure of an XCT cell that was fixed with paraformaldehyde (PFA) and that received a permeabilization process was tested. The appearance and disappearance of single molecule speckles (Single-molecule speckles, SiMS) in the structure was tested. Screening was performed for a probe for IRIS in accordance with the following criteria:
(§5) (1) It is possible to confirm a distribution of target substances in the structure in an image resulting from adding SiMS images;
(§6) The localization test of the above (1), whose result is shown in table 1, was performed in the following procedures. First, the supernatant liquid of lysate of a cell that expressed each probe candidate was brought into contact with an XCT cell that was fixed on a coverglass and that received a permeabilization process. […] The obtained speckle images of 10000 frames were integrated so as to confirm whether or not a distribution of target substances in the cell (microtubule, intermediate filament, focal adhesion or actin filament) was able to be confirmed. When a distribution of a target substances was able to be confirmed, the result of the localization test was treated as P (positive).

focal adhesion [4] = experiment: Measurement of binding half-life of probe-target complex; set-up: species or system Xenopus laevis; conditions: fixed XTC cell, single exponential fit
Excerpt: (§7) A probe and a target substance have the following binding characteristics. […] The above half-life herein is preferably a half-life of a probe-target complex formed by binding between a probe and a target substance in a case when a medium containing a probe and a sample containing a target substance that is to be observed are brought into contact under a condition for performing an imaging step. […] Measurement procedures for the half-life are as below. […] Ndissociation is a cumulative relative frequency of a probe that dissociated. A cumulative relative frequency is a ratio of the speckles that disappeared within a given period of time to the total number of measured speckles (i.e. probes) (i.e. probes that dissociated within a given period of time), and represents the total number as 1. Then, by fitting the above complementary cumulative relative frequency function with an exponent function, that half-life is calculated.
The measurement of binding half-life, whose result is shown in table 1, was performed in the following procedures. […] Then, by fitting the complementary cumulative relative frequency function with an exponent function, the half-life was calculated. However, the binding half-life with respect to an actin filament of Atto488-Lifeact was measured by using a method that is described in detail in the section for FIG. 9 in the Brief Description of the Drawings.

microtubule [5] = experiment: IRIS image test (reconstruction image); type: cell-based, Xenopus laevis; set-up: key: “IRIS image” is positive (P) when above criterion (3) is met; conditions: reconstruction from 10000 frames with DAOSTORM
Experimental: as §1

microtubule [6] = experiment: Washability test of probe candidates; type: cell-based, Xenopus laevis; set-up: key: “washability” is positive (P) when above criterion (2) is met; conditions: speckles equal to or less than about 10% after switching imaging solution 10 to 20 times
Experimental: as §2, §3

microtubule [7] = experiment: Measurement of binding half-life of probe-target complex; set-up: species or system Xenopus laevis; conditions: fixed XTC cell, single exponential fit
Excerpt: as §7
The measurement of binding half-life, whose result is shown in table 1, was performed in the following procedures. Speckle images of 10000 frames picked up in the localization test were used in order to measure a period of time between the appearance of a probe that has bound to a target in a speckle image and disappearance through dissociation in a semi-manual mode by using Speckle TrackerJ, an ImageJ plug-in. In case of for example picking up of images with an exposure time of 50 ms and at a frame rate of 20 Hz, it is assumed that a period of time between the appearance and disappearance of a speckle that is observed in only one of consecutive frames is 50 ms and a period of time between the appearance and disappearance of a speckle observed in only two consecutive frames is 100 ms. […] Ndissociation is a cumulative relative frequency of probes that dissociated. Then, by fitting the complementary cumulative relative frequency function with an exponent function, the half-life was calculated. However, the binding half-life with respect to an actin filament of Atto488-Lifeact was measured by using a method that is described in detail in the section for FIG. 9 in the Brief Description of the Drawings.

microtubule [8] = experiment: Localization test of probe candidates (integrated SiMS images); type: cell-based, Xenopus laevis; set-up: key: “localization” is positive (P) when above criterion (1) is met; conditions: fixed, permeabilized XTC cell; lysate supernatant of EGFP fused probe; TIRF, 10000 frames
Experimental: as §4, §5, §6

B1: Paxillin 167-557: EGFP fused (N terminus) human Paxillin fragment, residues 167-557 of sequence number 15 (protein, UniProt P49023 167-557, looked up, fragment)
chain: ANSSPPLPGALSPLYGVPETNSPLGGKAGPLTKEKPKRNGGRGLEDVRPSVESLLDELESSVPSPVPAITVNQGEMSSPQRVTSTQQQTRISASSATRELDELMASLSDFKIQGLEQRADGERCWAAGWPRDGGRSSPGGQDEGGFMAQGKTGSSSPPGGPPKPGSQLDSMLGSLQSDLNKLGVATVAKGVCGACKKPIAGQVVTAMGKTWHPEHFVCTHCQEEIGSRNFFERDGQPYCEKDYHNLFSPRCYYCNGPILDKVVTALDRTWHPEHFFCAQCGAFFGPEGFHEKDGKAYCRKDYFDMFAPKCGGCARAILENYISALNTLWHPECFVCRECFTPFVNGSFFEHDGQPYCEVHYHERRGSLCSGCQKPITGRCITAMAKKFHPE
modifications: N-terminal EGFP fusion
IRIS IMAGE (focal adhesion [1]): P
WASHABILITY (focal adhesion [2]): P
LOCALIZATION (focal adhesion [3]): P
HALF-LIFE (focal adhesion [4]): 0.138 s

B2: Paxillin 54-498: EGFP fused (N terminus) human Paxillin fragment, residues 54-498 of sequence number 15 (protein, UniProt P49023 54-498, looked up, fragment)
chain: SSEALNGTILDPLDQWQPSSSRFIHQQPQSSSPVYGSSAKTSSVSNPQDSVGSPCSRVGEEEHVYSFPNKQKSAEPSPTVMSTSLGSNLSELDRLLLELNAVQHNPPGFPADEANSSPPLPGALSPLYGVPETNSPLGGKAGPLTKEKPKRNGGRGLEDVRPSVESLLDELESSVPSPVPAITVNQGEMSSPQRVTSTQQQTRISASSATRELDELMASLSDFKIQGLEQRADGERCWAAGWPRDGGRSSPGGQDEGGFMAQGKTGSSSPPGGPPKPGSQLDSMLGSLQSDLNKLGVATVAKGVCGACKKPIAGQVVTAMGKTWHPEHFVCTHCQEEIGSRNFFERDGQPYCEKDYHNLFSPRCYYCNGPILDKVVTALDRTWHPEHFFCAQCGAFFGPEGFHEKDGKAYCRKDYFDMFAPKCGGCARAILENYISALNTLWHPE
modifications: N-terminal EGFP fusion
IRIS IMAGE (focal adhesion [1]): P
WASHABILITY (focal adhesion [2]): P
LOCALIZATION (focal adhesion [3]): P
HALF-LIFE (focal adhesion [4]): 0.091 s

B3: MAP4 659-908: EGFP fused (N terminus) mouse MAP4 fragment, amino acid residues 659-908 of sequence number 4 (protein, UniProt P27546 659-908, looked up, fragment)
chain: PPNKEPPPSPEKKAKPLATTQPAKTSTSKAKTQPTSLPKQPAPTTSGGLNKKPMSLASGSVPAAPHKRPAAATATARPSTLPARDVKPKPITEAKVAEKRTSPSKPSSAPALKPGPKTTPTVSKATSPSTLVSTGPSSRSPATTLPKRPTSIKTEGKPADVKRMTAKSASADLSRSKTTSASSVKRNTTPTGAAPPAGMTSTRVKPMSAPSRSSGALSVDKKPTSTKPSSSAPRVSRLATTVSAPDLKSV
modifications: N-terminal EGFP fusion
IRIS IMAGE (microtubule [5]): P
WASHABILITY (microtubule [6]): P
HALF-LIFE (microtubule [7]): 0.106 s
LOCALIZATION (microtubule [8]): P
